Data from ChEMBL document CHEMBL3232870, “Discovery of 3-(4-methanesulfonylphenoxy)-N-[1-(2-methoxy-ethoxymethyl)-1H-pyrazol-3-yl]-5-(3-methylpyridin-2-yl)-benzamide as a novel glucokinase activator (GKA) for the treatment of type 2 diabetes mellitus” (Bioorg Med Chem, 2014).

Substrate: COCCOCn1ccc(NC(=O)c2cc(Oc3ccc(S(C)(=O)=O)cc3)cc(-c3ncccc3C)c2)n1
Assay: Activity of recombinant human pancreatic glucokinase assessed as glucose half-maximal activity

B1: Hexokinase-4 (Homo sapiens), P35557 (protein)
chain: MLDDRARMEAAKKEKVEQILAEFQLQEEDLKKVMRRMQKEMDRGLRLETHEEASVKMLPTYVRSTPEGSEVGDFLSLDLGGTNFRVMLVKVGEGEEGQWSVKTKHQMYSIPEDAMTGTAEMLFDYISECISDFLDKHQMKHKKLPLGFTFSFPVRHEDIDKGILLNWTKGFKASGAEGNNVVGLLRDAIKRRGDFEMDVVAMVNDTVATMISCYYEDHQCEVGMIVGTGCNACYMEEMQNVELVEGDEGRMCVNTEWGAFGDSGELDEFLLEYDRLVDESSANPGQQLYEKLIGGKYMGELVRLVLLRLVDENLLFHGEASEQLRTRGAFETRFVSQVESDTGDRKQIYNILSTLGLRPSTTDCDIVRRACESVSTRAAHMCSAGLAGVINRMRESRSEDVMRITVGVDGSVYKLHPSFKERFHASVRRLTPSCEITFIESEEGSGRGAALVSAVACKKACMLGQ
  Vmax: 150%
